Measured values published in patent US20120135472.

Molecular target: T1, small fragment of Nanoarchaeum equitans DNA polymerase (Neq S)
T1 chain: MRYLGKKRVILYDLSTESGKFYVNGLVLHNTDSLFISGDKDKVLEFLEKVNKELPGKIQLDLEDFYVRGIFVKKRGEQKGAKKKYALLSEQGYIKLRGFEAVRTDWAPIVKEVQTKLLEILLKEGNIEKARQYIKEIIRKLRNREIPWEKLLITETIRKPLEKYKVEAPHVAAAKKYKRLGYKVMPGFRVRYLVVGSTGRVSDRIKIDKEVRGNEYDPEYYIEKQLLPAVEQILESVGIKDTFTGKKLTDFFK

B1: large fragment of Nanoarchaeum equitans DNA polymerase (Neq L) (protein)
chain: MLHQLPTMVVEEKAVKEEEGYSVLKCYWINIENTPLDEVILIGKDENNRACEVIIPYKWYFYFEGDIKDLEEFANNKKIKIEYTKEQKKYIEKPKDVYKVYVLHKHYPILKEFIKEKGYKKYETDINVYRKFLIDKGIEPFEWFEVEGKILLSTSNKVRIKAQSIKRLYEKTKPSVLAFDIEVYSEAFPNPEKDKIISIALYGDNYEGVISYKGEPTIKVNTEYELIEKFVEIIESLKPDIIVTYNGDNFDIDFLVKRASLYNIRLPIKLVNKKEPTYNFRESAHVDLYKTITTIYKTQLSTQTYSLNEVAKEILGEEKIYDYENMLYDWAIGNYNKVFEYNLKDAELTYKLFKYYENDLLELARLVNQPLFDVSRFSYSNIVEWYLIKKSRKYNEIVPNKPKMEEVERRKLNTYAGAFVYEPKPGLYENLAVLDFASLYPSIILEHNVSPGTIYCEHDDCKQNGVEAIINNEKKYVWFCKKVKGFIPTVLEHLYTKRLELKRKLKELDRDSEEYKIINAKQAVLKIIINATYGYMGFPNARWYCIDCAAAVAAWGRKYINYILKRAEEEGFKVIYGDSIMDTEIEVIENGIKKKEKLSDLFNKYYAGFQIGEKHYAFPPDLYVYDGERWVKVYSIIKHETETDLYEINGITLSANHLVLSKGNWVKAKEYENKNN
  activity of DNA polymerase (3H-dTTP incorporation, relative to 20 pmoles of Neq P = 100%): The activity of DNA polymerase of the solution was very low after the protein trans-splicing of Neq L and Neq S at 60° C., but was maximized at 95 °C
